From patent publication US20260069689A1 (Regeneron, published 2026) come the findings set out here.

Values joined by “and” are separate entries in the source; they are usually repeats but may differ in a detail not shown here. Equal entries are not always repeated.

In assay [1] the target is T1, SARS-COV-2 RBD-MMH (SARS-COV-2 RBD extracellular domain with C-terminal myc-myc-hexahistidine tag) (SARS-CoV-2). Kind of assay: SPR 37C, mAb captured, pH 7.4 vs pH 6.0.
Assay [2] deals with SARS-CoV-2 RBD.mmh (Spike amino acids Arg319-Phe541 with C-terminal myc-myc-6-Histidine tag) (SARS-CoV-2, UniProt P0DTC2 319-541).
Assay [3] deals with T1, SARS-COV-2 RBD-MMH (SARS-COV-2 RBD …).

B1: mAb15157 (antibody, V domains shown)
VH: EVQLVESGGALVQPGGSLRLSCAASGFPFTIYAMTWVRQAPGKGLEWVSVITGSGDSTYYADSVKGRFTISRDNSKNTLYLQMNSLRAEDTAVYYCVKTGEGFFYYYYGMDVWGQGTTVTVSS
VL: QSVLTQPPSVSAAPGQKVTISCSGSSSNIGNSYISWYQQLPGTAPKLLIYVNNKRPSGIPDRFSGSKSGTSATLGITGLQTGDEADYYCGTWDSSLSAGVFGSGTKVTVLG
Consider B1, for which, in assay [1], the “t½ Ratio of pH 7.4 to pH 6.0” value is 1.9. This molecule yielded a half-maximal inhibitory concentration (IC50) in assay [2] of 0.357 nM. In assay [3], the koff worked out at 0.00766 s⁻¹, the “t½ at pH 6.0” value came out at 1.5 min and the “t½ at pH 7.4” value was 2.9 min.

B2: mAb14313 (antibody, V domains shown)
VH: EVQLVESGGGLVQPGRSLRLSCVASGFTFDDSAMHWVRQPPGKGLEWVSGISWNSGIIGYAESVKGRFIISRDNAKNSLFLHMRGLRPEDTAVYYCARDRLELSYYYYGMDVWGQGTTVTVSS
VL: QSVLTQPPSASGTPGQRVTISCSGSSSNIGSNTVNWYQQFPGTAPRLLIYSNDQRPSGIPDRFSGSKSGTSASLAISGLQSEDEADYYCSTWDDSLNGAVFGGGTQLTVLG
On to B2, for which, in assay [1], the “t½ Ratio of pH 7.4 to pH 6.0” value amounted to 1.6. This molecule also registered an IC50 in assay [2] of 16.4 nM. Besides, in assay [3], the koff is 0.00251 s⁻¹ and 0.0041 s⁻¹; the “t½ at pH 6.0” value worked out at 2.8 min; the “t½ at pH 7.4” value stood at 4.6 min.

B3: mAb15156 (antibody, V domains shown)
VH: QLQLQESGPGLVKSSETLSLTCTVSASITGSTYYWGWIRQPPGKGLEWIGSIYYSGTTYYKASLKSRVTISVDTSKNQFSLKLTSVTVADTAVYYCVSHLLGNYHKYGMDVWGQGTTVTVSS
VL: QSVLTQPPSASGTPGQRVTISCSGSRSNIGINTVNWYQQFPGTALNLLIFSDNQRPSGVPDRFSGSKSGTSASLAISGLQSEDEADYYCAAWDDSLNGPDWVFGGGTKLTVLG
As to B3, in assay [1], the “t½ Ratio of pH 7.4 to pH 6.0” value was determined as 1.4. This molecule also returned an IC50 in assay [2] of 0.269 nM. Besides, in assay [3], the off-rate (koff) came to 0.0097 s⁻¹, the “t½ at pH 6.0” value worked out at 1.2 min and the “t½ at pH 7.4” value turned out to be 1.7 min.

B4: mAb14312 (antibody, V domains shown)
VH: EVQLVESGGGLVQPGGSLRLSCAASGFTVSRSYMTWVRQAPGKGLEWVSVIFTGGRTDHADSVKGRFTISRHNSKNTLYLQMNSLRTEDTAVYYCARVAIVGATGAFDIWGQGTMVTVSS
VL: QSVLTQPPSVSGAPGQRVTISCTGSSSNIGAGDDVHWYQQLPGTAPKLLIYGNSNRPSGVPDRFSGSKSGTSASLAITGLQAEDEADYYCQSYDSSLSGSVVFGGGTKLTVLG
As for B4, the “t½ Ratio of pH 7.4 to pH 6.0” value in assay [1] was determined as 2.1. 0.134 nM corresponded to half-maximal inhibition in assay [2] (IC50). In assay [3], the koff came to 0.00177 s⁻¹, the “t½ at pH 6.0” value came out at 6.5 min and the “t½ at pH 7.4” value turned out to be 13.5 min.

B5: mAb15161 (antibody, V domains shown)
VH: EVQLVESGGGLVQPGGSLRLSCAASGFTFSSYEMNWVRQAPGKGLEWVSYISSSGSILYYADSVKGRFTASRDNAKNSLYLQMNSLRAEDTGVYYCARREYQLLRPFEFWGQGTLVTVSS
VL: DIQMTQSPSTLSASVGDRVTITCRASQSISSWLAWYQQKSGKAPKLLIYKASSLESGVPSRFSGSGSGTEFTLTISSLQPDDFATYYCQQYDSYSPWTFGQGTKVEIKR
Consider B5, for which the “t½ Ratio of pH 7.4 to pH 6.0” value in assay [1] was 0.9. In addition, the IC50 in assay [2] is 0.584 nM. In assay [3], the koff stood at 0.00107 s⁻¹, the “t½ at pH 6.0” value stood at 10.8 min and the “t½ at pH 7.4” value is 10.3 min.

B6: mAb14294 (antibody, V domains shown)
VH: EVQLVESGGGLVQPGGSLRLSCAASGFTFSNHWMDWVRQAPGKGLVWVSRINSDGSSTDYADSVRGRFTMSRDNAKNTLYLQMSSLRAEDTAVYYCAREGMIFGAVIIPGWYFDLWGRGALVTVSS
VL: EIVLTQSPGTLSLSPGERATLSCRASQSVSSSQLAWYQQKPGQAPRLLIYGASSRATGIPDRFSGSGSGTDFTLTISRLEPEDFAVYYCQQYDSFGQGTKLEIKR
As to B6, the “t½ Ratio of pH 7.4 to pH 6.0” value in assay [1] stood at 0.6. This molecule gave an IC50 in assay [2] of 0.244 nM. In addition, in assay [3], the koff is 0.000565 s⁻¹, the “t½ at pH 6.0” value came to 20.5 min and the “t½ at pH 7.4” value came to 12.6 min.

B7: mAb15159 (antibody, V domains shown)
VH: EVQLVESGGGLVQPGGSLRLSCAASGITVSSNYMTWVRQAPGKGLEWVSLIYSGGSTFYADSVRGRFTISRDNSKNTLYLQMNSLRAEDTAVYYCARDLVVYGMDVWGQGTTVTVSS
VL: DIQLTQSPSSLSASVGDRVTITCRASQGISSYLAWYQQKPGKAPKLLIYAASTLQSGVPSRFSGSGSGTDFTLTISSLQPEDFATYYCQHLNSDPHTFGQGTKLEIKR
For the molecule B7, the “t½ Ratio of pH 7.4 to pH 6.0” value in assay [1] was found to be 1.8. In assay [2], this molecule registered a 50% inhibitory concentration (IC50) of 0.156 nM. For the same molecule, in assay [3], the koff amounted to 0.000412 s⁻¹, the “t½ at pH 6.0” value turned out to be 28.1 min and the “t½ at pH 7.4” value was 50 min.

B8: mAb15158 (antibody, V domains shown)
VH: EVQLVESGGGLVQPGGSLRLSCAASGFSFSSNWMSWVRQAPGKGLEWVGNINQDGSEKYYVDSVEGRFTISRDNAKKSLYLQMNSLRAEDTAVYYCARDLGVLWFGDFVDWGQGALVTVSS
VL: DIQMTQSPSSLSASVGDRVTITCRASQAISNSLAWYQQKPGKAPKLLLYAASTLESGVPSRFSGSGSGTDYTLTISSLQPEDFATYYCLQYYGSPRTFGQGTKVEIKR
In the case of B8, in assay [1], the “t½ Ratio of pH 7.4 to pH 6.0” value was determined as 0.9. Further, the midpoint of inhibition in assay [2], the IC50, lay at 0.309 nM. Besides, in assay [3], the off-rate (koff) worked out at 0.00029 s⁻¹, the “t½ at pH 6.0” value is 40.1 min and the “t½ at pH 7.4” value is 37 min.

B9: mAb15162 (antibody, V domains shown)
VH: EVQLVETGGGLIQPGGSLRLSCAASEFIVSRNYMSWVRQAPGKGLEWVSLIYSGGSTYYADSVKGRFTISRDNSKNILYLQMNSLRAEDTAVYYCARDRGGISDYWGQGTLVTVSS
VL: DIQMTQSPSSLSASVGDRVTITCQASQDINKYLNWFQQKPGKAPKLLIYDASNLETGVPSRFSGSGSGTDFTFTISSLQPEDIATYYCQQYDNLPRTFGQGTKLEIKR
Regarding B9, in assay [1], the “t½ Ratio of pH 7.4 to pH 6.0” value amounted to 1.2. For the same molecule, in assay [2], 0.756 nM corresponded to half-maximal inhibition (IC50). In addition, in assay [3], the koff worked out at 0.00354 s⁻¹, the “t½ at pH 6.0” value was 3.3 min and the “t½ at pH 7.4” value turned out to be 3.9 min.

B10: mAb15160 (antibody, V domains shown)
VH: EVQLVESGGGLVQPGGSLRLSCSASGFTFSRYAMYWVRQAPGKGLEYVSAISSDGGSTYDADSVKGRFTISRANSKNTLYLQMSSLRAEDTAVYYCVKGLRELLYYYYGMDVWGQGTTVTVSS
VL: DIQMTQSPSSLSASVGDRVTITCRAGQSISSFLNWYQQKPGKAPKLLIYAASSLQSGVPSRFSGSGSGTDFTLTISSLQPEDFATYYCQQSYITPFTFGPGTKVDIKR
With B10, in assay [1], the “t½ Ratio of pH 7.4 to pH 6.0” value was determined as 1.3. The IC50 in assay [2] amounted to 0.204 nM. Moreover, in assay [3], the dissociation rate constant (koff) came to 0.00283 s⁻¹, the “t½ at pH 6.0” value turned out to be 4.1 min and the “t½ at pH 7.4” value stood at 5.3 min.

B11: mAb14289 (antibody, V domains shown)
VH: QVQLVQSGPEVKKPGASVKVSCKASGYTFTSYAISWVRQAPGQGLEWMGWISAYNGNTNYAQKLQGRVTMTTDTFTSTAYMELRSLRSDDTAVYYCAVPADHITFDYWGQGTLVTVSS
VL: EIVLTQSPGTLSLSPGERATLSCRASQSVSSYLAWYQQKPGQAPRLLIHGASSRATGIPDRFSGSGSGTDFTLTISRLEPEDFAVYYCQQYGSSFLTFGGGTKVEIKR
For the molecule B11, the “t½ Ratio of pH 7.4 to pH 6.0” value in assay [1] was 1.5. The same molecule yielded an IC50 in assay [2] of 0.378 nM. Moreover, in assay [3], the koff is 0.00272 s⁻¹, the “t½ at pH 6.0” value was determined as 4.2 min and the “t½ at pH 7.4” value amounted to 6.2 min.

B12: mAb14285 (antibody, V domains shown)
VH: QVQLVQSGAEVKKPGASVKVSCKASGYTFTGYFIHWVRQAPGQGLEWMGWISPISGGTNYAQKFQGRVTVTRDTSITTAYMELSRLTSDDTAVYHCAREGGTWKGDFDYWGQGTLVTVSS
VL: QSALTQPASVSGSPGQSITISCTGTSSDVESYNLVSWYQQHPGKAPKLMIYEGSKRPSGVSNRFSGSKSGNTASLTISGLQAEDEADYYCSSYAGSSTWVFGGGTKLTVLG
B12: the “t½ Ratio of pH 7.4 to pH 6.0” value in assay [1] worked out at 0.5. In assay [2], this molecule yielded an IC50 of 1.7 nM. Moreover, in assay [3], the off-rate (koff) came out at 0.0144 s⁻¹, the “t½ at pH 6.0” value came out at 0.8 min and the “t½ at pH 7.4” value was 0.4 min.

B13: mAb14286 (antibody, V domains shown)
VH: QVQLVQSGAEVKKPGASVKVSCKASGYTFTDYFIHWVRQAPGQGLEWMGWINPTSGGTNYAQKFRGRVTMTRDTSISTAYVELSRLRSDDTALYYCARDLPFYSDTKQFDYWGQGTLVTVSS
VL: QSALTQPASVSGYPGQSITISCTGTSSDVGGYNYVSWYQQHPGKAPKLMIFDVSNRPSGVSNRFSGSKSGNTASLTFSGLQAEDEADYYCSSYTSSSTLVFGGGTKLTVLG
B13: in assay [1], the “t½ Ratio of pH 7.4 to pH 6.0” value was determined as 1. Also, the concentration for half-maximal inhibition (IC50) in assay [2] came out at 0.641 nM. Besides, in assay [3], the koff turned out to be 0.00999 s⁻¹, the “t½ at pH 6.0” value came to 1.2 min and the “t½ at pH 7.4” value came to 1.2 min.

B14: mAb14315 (antibody, V domains shown)
VH: QVQLVQSGAEVKKPGSSVKVSCKASGDTFSTYAINWVRQAPGQGLEWMGRFIHIFGTANYAQKFQGRVTITADESTSTAYMELRSLRSEDTAVYYCARDGVDYGDYRPDYWGQGTLVTVSS
VL: EIVLTQSPGTLSLSPGERATLSCRASQSVSSNYLAWYQQKPGQAPRLLIYGASSRATGIPERFSGSGSGTDFTLTISRLEPEDFAVYYCQQYGSSLYTFGQGTKLEIKR
In the case of B14, the “t½ Ratio of pH 7.4 to pH 6.0” value in assay [1] turned out to be 1. The molecule further came in with a half-inhibitory concentration (IC50) in assay [2] of 17.2 nM. In assay [3], the koff came to 0.000946 s⁻¹, the “t½ at pH 6.0” value was found to be 12.2 min and the “t½ at pH 7.4” value turned out to be 11.8 min.

B15: mAb14284 (antibody, V domains shown)
VH: QITLKESGPTLVKPTQTLTLTCTFSGFSFSTSGVGVGWIRQPPGKTLEWLALIYWDDDKRYSPSLKSRLTITKDTSKNQVVLTMTNMDPVDTATYFCAHHGIPTIFGYWGQGALVTVSS
VL: QSALTQPASVSGSPGQSITISCTGTSSDLGVFNYVSWYQQHPGKAPKLMIYEVTNRPSGVSNRFSGSKSGNTASLTISGLQAEDEADYYCSSYTTSSTVFGGGTKLTVLG
In the case of B15, the “t½ Ratio of pH 7.4 to pH 6.0” value in assay [1] stood at 0.9. The same molecule yielded an IC50 in assay [2] of 0.367 nM. In assay [3], the koff is 0.000574 s⁻¹, the “t½ at pH 6.0” value was 20.1 min and the “t½ at pH 7.4” value was determined as 18.5 min.

B16: mAb14292 (antibody, V domains shown)
VH: EVQLVESGGGLVQPGGSLRLSCVASGFAFSTYEMNWVRQAPGKGLEWVSYISSSGSTIYYADSVKGRLTISRDNVKNSLYLQMNSLRVEDTAIYYCARDAIRNNDILTDPATFDPWGQGTLVTVSS
VL: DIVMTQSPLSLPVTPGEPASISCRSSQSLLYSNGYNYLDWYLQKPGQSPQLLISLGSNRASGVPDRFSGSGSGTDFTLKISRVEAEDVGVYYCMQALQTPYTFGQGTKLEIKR
Consider B16, for which the “t½ Ratio of pH 7.4 to pH 6.0” value in assay [1] was found to be 1.3. In assay [2], this molecule returned an IC50 of 0.254 nM. Moreover, in assay [3], the off-rate constant (koff) is 0.00141 s⁻¹ and 0.00178 s⁻¹; the “t½ at pH 6.0” value is 6.5 min; the “t½ at pH 7.4” value came to 8.2 min.

A word on the IC50: it is the concentration needed to halve the response being measured. A word on the koff: it is the first-order rate constant of dissociation. One may read the t½ as the time in which the quantity being followed falls by half.
